This experiment deals with human MDM2 (Homo sapiens, UniProt Q00987). The experiment in a line: MDM2 AlphaLISA competition assay. The format is binding. The conditions noted are these: up to 50 µM.

The values below come from paper PMC12095755 (Nature Communications, 2025).

Chain of human MDM2 (Q00987 whole entry): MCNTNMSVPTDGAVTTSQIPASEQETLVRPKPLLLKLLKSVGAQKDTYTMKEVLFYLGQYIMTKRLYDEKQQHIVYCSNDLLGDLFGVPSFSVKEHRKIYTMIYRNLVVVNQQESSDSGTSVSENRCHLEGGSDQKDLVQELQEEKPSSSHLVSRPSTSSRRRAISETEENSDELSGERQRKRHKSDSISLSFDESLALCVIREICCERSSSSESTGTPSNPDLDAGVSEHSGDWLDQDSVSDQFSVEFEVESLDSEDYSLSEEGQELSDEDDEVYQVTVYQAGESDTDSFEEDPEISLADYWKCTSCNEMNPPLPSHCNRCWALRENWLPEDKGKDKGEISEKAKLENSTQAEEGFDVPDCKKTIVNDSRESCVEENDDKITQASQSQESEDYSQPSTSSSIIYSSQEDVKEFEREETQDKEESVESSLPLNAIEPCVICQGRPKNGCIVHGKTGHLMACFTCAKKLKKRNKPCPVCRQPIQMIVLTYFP

Turning to F-S-D-L-W (FSDLW) [p53 motif], the “activity in the AlphaLISA assay” value was “no activity”.
